Literature values in article PMC3229669.

Molecular target: histone H4 N-terminal tail (UniProt P62805)

Spt16 NT domain, sequence (O94267 1-442): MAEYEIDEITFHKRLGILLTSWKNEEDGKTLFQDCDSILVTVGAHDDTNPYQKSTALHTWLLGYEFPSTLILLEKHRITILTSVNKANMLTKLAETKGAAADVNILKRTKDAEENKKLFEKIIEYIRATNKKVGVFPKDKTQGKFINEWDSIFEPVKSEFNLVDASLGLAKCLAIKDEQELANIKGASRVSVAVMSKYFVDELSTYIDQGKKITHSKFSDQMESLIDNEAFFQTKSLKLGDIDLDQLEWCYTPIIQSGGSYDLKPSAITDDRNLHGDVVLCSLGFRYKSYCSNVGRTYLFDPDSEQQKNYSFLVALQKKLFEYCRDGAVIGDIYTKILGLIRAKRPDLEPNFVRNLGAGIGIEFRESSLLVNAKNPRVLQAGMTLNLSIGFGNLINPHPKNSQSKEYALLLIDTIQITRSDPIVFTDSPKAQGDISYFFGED

For Spt16 NT domain (from UniProt O94267), the Kd is given as 3000 nM.
